Experimental data reported in patent publication US20090092614A1.

Experiments:
[1] = target: murine IGF-1R(1-903)-Fc (murine; human) (UniProt Q60751); test: SPR, Fab over receptor-Fc captured on M13-C06 surface
[2] = target: murine IGF-1R(1-903)-Fc (murine; human) (UniProt Q60751); test: SPR

Chain of murine IGF-1R(1-903)-Fc (murine; human) (Q60751 31-933 limits assumed, form in doubt): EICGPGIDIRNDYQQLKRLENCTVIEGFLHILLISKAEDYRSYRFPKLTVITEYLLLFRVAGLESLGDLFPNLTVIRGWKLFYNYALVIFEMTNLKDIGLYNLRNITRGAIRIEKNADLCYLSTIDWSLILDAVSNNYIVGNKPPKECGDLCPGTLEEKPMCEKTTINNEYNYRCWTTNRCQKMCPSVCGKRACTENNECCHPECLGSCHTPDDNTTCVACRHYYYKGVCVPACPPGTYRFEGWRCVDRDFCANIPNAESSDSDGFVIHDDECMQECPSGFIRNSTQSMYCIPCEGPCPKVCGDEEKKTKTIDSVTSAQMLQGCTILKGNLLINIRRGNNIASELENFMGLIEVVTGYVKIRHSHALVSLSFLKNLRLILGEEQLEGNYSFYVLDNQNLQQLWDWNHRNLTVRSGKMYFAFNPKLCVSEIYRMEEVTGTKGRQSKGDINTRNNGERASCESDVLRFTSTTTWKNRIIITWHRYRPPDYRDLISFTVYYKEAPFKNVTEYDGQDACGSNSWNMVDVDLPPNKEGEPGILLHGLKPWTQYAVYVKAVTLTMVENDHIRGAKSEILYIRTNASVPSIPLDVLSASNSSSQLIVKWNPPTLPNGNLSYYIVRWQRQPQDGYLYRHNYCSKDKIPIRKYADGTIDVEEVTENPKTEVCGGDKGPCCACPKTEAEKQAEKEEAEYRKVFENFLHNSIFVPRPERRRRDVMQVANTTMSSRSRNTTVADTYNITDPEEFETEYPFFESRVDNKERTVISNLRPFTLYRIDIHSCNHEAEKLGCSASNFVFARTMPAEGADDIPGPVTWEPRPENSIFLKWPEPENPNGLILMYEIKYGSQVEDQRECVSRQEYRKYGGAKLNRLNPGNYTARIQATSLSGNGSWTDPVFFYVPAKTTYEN

- Biacore Relative RUmax [1]: 0
- fold decrease in binding against human IGF-1R [2]: 100 fold
B1: M13-C06 Fab (Fab, V domains shown)
VH: EVQLLESGGGLVQPGGSLRLSCAASGFTFSIYRMQWVRQAPGKGLEWVSGISPSGGTTWYADSVKGRFTISRDNSKNTLYLQMNSLRAEDTAVYYCARWSGGSGYAFDIWGQGTMVTVSS
VL: DIQMTQSPLSLSASVGDRVTITCQASRDIRNYLNWYQQKPGKAPKLLIYDASSLQTGVPSRFGGSGSGTDFSFTIGSLQPEDIATYYCQQFDSLPHTFGQGTKLEIK
